For four molecules, EC50 and IC50 results are on record in patent US20260116960A1 (SHANGHAI HONGCHENG BIOPHARMACEUTICAL, published 2026).

For experiment [1], the target named is T1, human VEGF165-his protein (Acro, Catalog No. VE5-H5248) (human, UniProt P15692-4 27-191).
T1 construct: Bought protein; also called hVEGF165-His; VEGFA; not shown: his tag
Briefly: ELISA, plate coated with human VEGF165-his. The procedure:
(§1) ELISA was used to determine the activity of the trispecific antibodies binding to the PD-1 protein: 1 μg/mL human PD-1 protein (Acro, Catalog No.: PD1-H5221) was used to coat a high-adsorption 96-well ELISA plate and incubated at 4° C. overnight. On the next day, the plate was washed three times with PBST solution and blocked with 1% BSA-PBS solution at 37° C. for 1 hour. At the same time, 3-fold gradient dilutions of the antibody were prepared with 1% BSA-PBS solution, with a starting concentration of 10 nM. The antibodies of each gradient concentration were added to the blocked 96-well ELISA plate at 100 µL/well in triplicate and incubated at 37° C. for 1 hour. The plate was then washed three times with 0.05% PBST solution, and 100 μL/well of HRP-labeled secondary antibody (Sigma, Catalog No.: A0170) diluted at 1:5000 was added to the ELISA plate and incubated at 37° C. for 1 hour. The plate was washed three times with 0.05% PBST solution and developed with TMB. The absorbance of the 96-well ELISA plate at 450 nm was detected by an ELISA reader. The OD₄₅₀ value was fitted using a four-parameter model to calculate the EC₅₀ value of each antibody binding to PD-1.
The binding activity of the trispecific antibodies to VEGFA protein was detected by ELISA method as described in Section 2.1. The used human VEGF165-his protein was purchased from Acro, Catalog No.: VE5-H5248.

Experiment [2] has as its target T2, human CTLA-4 protein (Acro, Catalog No. CT4-H52H9) (human, UniProt P16410 36-161).
T2 construct: Bought protein
Briefly: ELISA, plate coated with human CTLA-4 protein.

Experiment [3] addresses T3, human CTLA-4 on the cell surface (human, UniProt P16410 36-223).
T3 construct: whole, on cells; also called CHO-hCTLA-4 cells; CHOK1-hCTLA4 cells
The experiment can be described thus: flow cytometry competition, 293T-hPD-1-hCTLA-4 cells (PD-1 co-expressed), biotin-human CD80. The procedure: PD-1 and CTLA-4 are co-expressed on functionally exhausted T cells in the tumor microenvironment, and the expression level of PD-1 is higher than that of CTLA-4. […] 200 μL of the cells were added to a 96-well U-bottom plate, approximately 1.4×10⁵ cells/well. After centrifugation at 300 g for 5 minutes, the supernatant was discarded. […] After washing three times with FACS buffer, 100 μL/well of 1:800 diluted PE Streptavidin was added and incubated at 4° C. for 50 min. After washing three times with FACS buffer, 150 μL/well of PBS was added to resuspend the cells, and the fluorescence signal was detected on a flow cytometer (BECKMAN COULTER cytoFLEX). The binding activity was fitted using a four-parameter model, and the IC₅₀ value of the blocking activity of each antibody was calculated.

For experiment [4], the target named is T4, human PD-1 protein (Acro, Catalog No. PD1-H5221) (human, UniProt Q15116 25-167).
T4 construct: Bought protein; also called human PD1-his; not shown: his tag
T4 sequence (Q15116 25-167 limits assumed): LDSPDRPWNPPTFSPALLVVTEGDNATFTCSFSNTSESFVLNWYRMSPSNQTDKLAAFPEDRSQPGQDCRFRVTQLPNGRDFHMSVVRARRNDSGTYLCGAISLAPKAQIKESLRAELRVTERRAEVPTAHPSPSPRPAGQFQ
Briefly: ELISA, plate coated with human PD-1 protein. On the procedure: as §1

The target in experiment [5] is human PD-1 protein (Acro, PD1-H5257) (human, UniProt Q15116 25-167). The experiment can be described thus: competitive ELISA, PD-1 coated, biotin-PD-L1 as labelled ligand. The procedure:
The next day, the plate was washed three times with PBS solution and blocked with 1% BSA-PBS solution at 37° C. for 1 hour. […] 100 μL of the antibody-protein mixture was added to each well of the blocked 96-well ELISA plate and incubated at 37° C. for 1 hour. After washing four times with PBST, 100 μL of Strep-HRP (BD, Catalog No. 554066) diluted 1:5000 was added to each well of the ELISA plate and incubated at 37° C. for 1 hour. After washing 4 times with PBST, TMB was used for color development. The absorbance at 450 nm and 630 nm was detected by a microplate reader, and OD450-OD630 was calculated. The fluorescence intensity was fitted using a four-parameter model, and the IC₅₀ value of the blocking activity of each antibody was calculated.

Experiment [6] addresses T5, human PD-1 on the cell surface (human, UniProt Q15116 25-288).
T5 construct: whole, on cells; also called cell surface PD-1
Briefly: flow cytometry competition, 293T-hPD-1 cells, biotin-human PD-L1. On the procedure:
50 μL of antibody solution serially diluted 3-fold in FACS buffer was added in triplicate, with a starting concentration of 200 nM. After mixing, incubated at 4° C. for 60 minutes. After washing three times with FACS buffer, 100 μL/well of 1:800 diluted PE Streptavidin was added and incubated at 4° C. for 50 min. After washing three times with FACS buffer, 150 μL/well of PBS was added to resuspend the cells, and the fluorescence signal was detected on a flow cytometer (BECKMAN COULTER cytoFLEX). The four-parameter model was used to fit the binding activity and the IC₅₀ value of the blocking activity of each antibody was calculated.

T3 sequence (P16410 36-223): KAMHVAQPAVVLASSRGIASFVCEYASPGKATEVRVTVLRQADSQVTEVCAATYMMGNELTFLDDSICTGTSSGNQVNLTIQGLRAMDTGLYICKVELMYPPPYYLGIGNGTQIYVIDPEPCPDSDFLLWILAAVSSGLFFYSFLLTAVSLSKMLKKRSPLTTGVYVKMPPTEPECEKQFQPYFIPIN
Sequence of human PD-1 protein (Acro, PD1-H5257) (Q15116 25-167 limits assumed): as the sequence (Q15116 25-167 limits assumed) above
T1 sequence (P15692 other isoform, or with tags, fused parts or gaps limits assumed): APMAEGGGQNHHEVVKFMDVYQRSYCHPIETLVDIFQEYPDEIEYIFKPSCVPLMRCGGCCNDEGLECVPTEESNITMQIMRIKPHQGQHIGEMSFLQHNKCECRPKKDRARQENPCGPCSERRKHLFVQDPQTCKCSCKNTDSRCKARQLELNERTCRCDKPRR
T2 sequence (P16410 36-161 limits assumed): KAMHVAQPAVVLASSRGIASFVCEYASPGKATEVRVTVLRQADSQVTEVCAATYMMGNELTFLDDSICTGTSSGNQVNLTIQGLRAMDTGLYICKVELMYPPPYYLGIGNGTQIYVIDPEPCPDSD
T5 sequence (Q15116 25-288): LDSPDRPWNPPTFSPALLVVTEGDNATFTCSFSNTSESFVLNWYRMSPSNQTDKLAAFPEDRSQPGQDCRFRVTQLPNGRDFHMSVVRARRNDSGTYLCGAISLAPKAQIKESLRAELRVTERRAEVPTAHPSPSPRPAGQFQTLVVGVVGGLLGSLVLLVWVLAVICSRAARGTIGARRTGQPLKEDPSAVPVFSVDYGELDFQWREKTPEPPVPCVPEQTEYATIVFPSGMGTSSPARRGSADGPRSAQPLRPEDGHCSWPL

B1: HC010-F7 (trispecific antibody, human IgG4 S228P, kappa)
heavy: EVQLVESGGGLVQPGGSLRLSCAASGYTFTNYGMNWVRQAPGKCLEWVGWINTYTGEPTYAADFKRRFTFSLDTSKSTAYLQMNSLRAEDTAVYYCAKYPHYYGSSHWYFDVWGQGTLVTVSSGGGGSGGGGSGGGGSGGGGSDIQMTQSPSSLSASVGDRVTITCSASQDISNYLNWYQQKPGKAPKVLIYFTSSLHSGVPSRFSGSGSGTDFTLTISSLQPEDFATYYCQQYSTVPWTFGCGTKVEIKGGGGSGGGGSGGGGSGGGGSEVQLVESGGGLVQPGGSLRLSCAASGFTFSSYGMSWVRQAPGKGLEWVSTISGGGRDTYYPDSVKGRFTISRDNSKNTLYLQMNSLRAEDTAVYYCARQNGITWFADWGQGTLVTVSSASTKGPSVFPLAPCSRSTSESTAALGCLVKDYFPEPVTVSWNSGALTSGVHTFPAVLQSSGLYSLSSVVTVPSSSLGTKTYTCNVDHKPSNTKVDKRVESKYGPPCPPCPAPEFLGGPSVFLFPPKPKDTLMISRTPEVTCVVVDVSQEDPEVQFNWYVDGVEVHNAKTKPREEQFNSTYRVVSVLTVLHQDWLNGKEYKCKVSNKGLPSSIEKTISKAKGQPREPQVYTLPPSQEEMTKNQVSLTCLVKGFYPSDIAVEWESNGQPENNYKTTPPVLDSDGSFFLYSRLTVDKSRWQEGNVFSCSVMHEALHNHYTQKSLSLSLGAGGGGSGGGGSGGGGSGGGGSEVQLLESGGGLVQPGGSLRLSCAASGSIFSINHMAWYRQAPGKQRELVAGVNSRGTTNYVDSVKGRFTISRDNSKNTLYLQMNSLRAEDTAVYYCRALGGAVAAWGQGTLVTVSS
light: DIQMTQSPSSLSASVGDRVTITCRASESVDNYGISFMNWYQQKPGKAPKLLIYAASNQGSGVPSRFSGSGSGTDFTLTISSLQPEDFATYYCQQSKEVPWTFGGGTKVEIKRTVAAPSVFIFPPSDEQLKSGTASVVCLLNNFYPREAKVQWKVDNALQSGNSQESVTEQDSKDSTYSLSSTLTLSKADYEKHKVYACEVTHQGLSSPVTKSFNRGEC
notes: light: CQ1-3/1-11 VL-kappa; also called H010-F7
On to B1, for which the concentration for a half-maximal effect (EC50) in experiment [1] is 0.081 nM; in experiment [2], 0.059 nM; in experiment [4] it was 0.085 nM. Moreover, the IC50 was 0.055 nM in experiment [3], 0.433 nM in experiment [5] and 3.7 nM in experiment [6].

B2: HC010-F13 (trispecific antibody, human IgG4 S228P, kappa)
heavy 1: EVQLVESGGGLVQPGGSLRLSCAASGFTFSSYGMSWVRQAPGKGLEWVSTISGGGRDTYYPDSVKGRFTISRDNSKNTLYLQMNSLRAEDTAVYYCARQNGITWFADWGQGTLVTVSSASTKGPSVFPLAPCSRSTSESTAALGCLVKDYFPEPVTVSWNSGALTSGVHTFPAVLQSSGLYSLSSVVTVPSSSLGTKTYTCNVDHKPSNTKVDKRVESKYGPPCPPCPAPEFLGGPSVFLFPPKPKDTLMISRTPEVTCVVVDVSQEDPEVQFNWYVDGVEVHNAKTKPREEQFNSTYRVVSVLTVLHQDWLNGKEYKCKVSNKGLPSSIEKTISKAKGQPREPQVYTLPPCQEEMTKNQVSLWCLVKGFYPSDIAVEWESNGQPENNYKTTPPVLDSDGSFFLYSRLTVDKSRWQEGNVFSCSVMHEALHNHYTQKSLSLSLGAGGGGSGGGGSGGGGSGGGGSEVQLVESGGGLVQPGGSLRLSCAASGYTFTNYGMNWVRQAPGKCLEWVGWINTYTGEPTYAADFKRRFTFSLDTSKSTAYLQMNSLRAEDTAVYYCAKYPHYYGSSHWYFDVWGQGTLVTVSSGGGGSGGGGSGGGGSGGGGSDIQMTQSPSSLSASVGDRVTITCSASQDISNYLNWYQQKPGKAPKVLIYFTSSLHSGVPSRFSGSGSGTDFTLTISSLQPEDFATYYCQQYSTVPWTFGCGTKVEIK
heavy 2: EVQLLESGGGLVQPGGSLRLSCAASGSIFSINHMAWYRQAPGKQRELVAGVNSRGTTNYVDSVKGRFTISRDNSKNTLYLQMNSLRAEDTAVYYCRALGGAVAAWGQGTLVTVSSGGGGSGGGGSGGGGSGGGGSESKYGPPCPPCPAPEFLGGPSVFLFPPKPKDTLMISRTPEVTCVVVDVSQEDPEVQFNWYVDGVEVHNAKTKPREEQFNSTYRVVSVLTVLHQDWLNGKEYKCKVSNKGLPSSIEKTISKAKGQPREPQVCTLPPSQEEMTKNQVSLSCAVKGFYPSDIAVEWESNGQPENNYKTTPPVLDSDGSFFLVSRLTVDKSRWQEGNVFSCSVMHEALHNRFTQKSLSLSLGAGGGGSGGGGSGGGGSGGGGSEVQLVESGGGLVQPGGSLRLSCAASGYTFTNYGMNWVRQAPGKCLEWVGWINTYTGEPTYAADFKRRFTFSLDTSKSTAYLQMNSLRAEDTAVYYCAKYPHYYGSSHWYFDVWGQGTLVTVSSGGGGSGGGGSGGGGSGGGGSDIQMTQSPSSLSASVGDRVTITCSASQDISNYLNWYQQKPGKAPKVLIYFTSSLHSGVPSRFSGSGSGTDFTLTISSLQPEDFATYYCQQYSTVPWTFGCGTKVEIK
light: DIQMTQSPSSLSASVGDRVTITCRASESVDNYGISFMNWYQQKPGKAPKLLIYAASNQGSGVPSRFSGSGSGTDFTLTISSLQPEDFATYYCQQSKEVPWTFGGGTKVEIKRTVAAPSVFIFPPSDEQLKSGTASVVCLLNNFYPREAKVQWKVDNALQSGNSQESVTEQDSKDSTYSLSSTLTLSKADYEKHKVYACEVTHQGLSSPVTKSFNRGEC
notes: Knob-into-hole heterodimer; light: CQ1-3/1-11 VL-kappa; One site each for PD-1 and CTLA-4; also called H010-F13
Turning to B2, the EC50 in experiment [1] was determined as 0.098 nM; in experiment [2], 0.438 nM; in experiment [4], 0.307 nM. Further, the half-maximal inhibitory concentration (IC50) was 0.066 nM in experiment [3], 1.63 nM in experiment [5] and 69.9 nM in experiment [6].

B3: HC010-F15 (trispecific antibody, human IgG4 S228P, kappa)
heavy 1: QVQLVESGGGVVQPGRSLRLSCAASGFTFSSYTMHWVRQAPGKGLEWVTFISYDGNNKYYADSVKGRFTISRDNSKNTLYLQMNSLRAEDTAIYYCARTGWLGPFDYWGQGTLVTVSSASTKGPSVFPLAPCSRSTSESTAALGCLVKDYFPEPVTVSWNSGALTSGVHTFPAVLQSSGLYSLSSVVTVPSSSLGTKTYTCNVDHKPSNTKVDKRVESKYGPPCPPCPAPEFLGGPSVFLFPPKPKDTLMISRTPEVTCVVVDVSQEDPEVQFNWYVDGVEVHNAKTKPREEQFNSTYRVVSVLTVLHQDWLNGKEYKCKVSNKGLPSSIEKTISKAKGQPREPQVYTLPPCQEEMTKNQVSLWCLVKGFYPSDIAVEWESNGQPENNYKTTPPVLDSDGSFFLYSRLTVDKSRWQEGNVFSCSVMHEALHNHYTQKSLSLSLGAGGGGSGGGGSGGGGSGGGGSEVQLVESGGGLVQPGGSLRLSCAASGYTFTNYGMNWVRQAPGKCLEWVGWINTYTGEPTYAADFKRRFTFSLDTSKSTAYLQMNSLRAEDTAVYYCAKYPHYYGSSHWYFDVWGQGTLVTVSSGGGGSGGGGSGGGGSGGGGSDIQMTQSPSSLSASVGDRVTITCSASQDISNYLNWYQQKPGKAPKVLIYFTSSLHSGVPSRFSGSGSGTDFTLTISSLQPEDFATYYCQQYSTVPWTFGCGTKVEIK
heavy 2: EVQLVESGGGLVQPGGSLRLSCAASGFTFSSYGMSWVRQAPGKCLEWVSTISGGGRDTYYPDSVKGRFTISRDNSKNTLYLQMNSLRAEDTAVYYCARQNGITWFADWGQGTLVTVSSGGGGSGGGGSGGGGSGGGGSDIQMTQSPSSLSASVGDRVTITCRASESVDNYGISFMNWYQQKPGKAPKLLIYAASNQGSGVPSRFSGSGSGTDFTLTISSLQPEDFATYYCQQSKEVPWTFGCGTKVEIKGGGGSGGGGSGGGGSGGGGSESKYGPPCPPCPAPEFLGGPSVFLFPPKPKDTLMISRTPEVTCVVVDVSQEDPEVQFNWYVDGVEVHNAKTKPREEQFNSTYRVVSVLTVLHQDWLNGKEYKCKVSNKGLPSSIEKTISKAKGQPREPQVCTLPPSQEEMTKNQVSLSCAVKGFYPSDIAVEWESNGQPENNYKTTPPVLDSDGSFFLVSRLTVDKSRWQEGNVFSCSVMHEALHNRFTQKSLSLSLGAGGGGSGGGGSGGGGSGGGGSEVQLVESGGGLVQPGGSLRLSCAASGYTFTNYGMNWVRQAPGKCLEWVGWINTYTGEPTYAADFKRRFTFSLDTSKSTAYLQMNSLRAEDTAVYYCAKYPHYYGSSHWYFDVWGQGTLVTVSSGGGGSGGGGSGGGGSGGGGSDIQMTQSPSSLSASVGDRVTITCSASQDISNYLNWYQQKPGKAPKVLIYFTSSLHSGVPSRFSGSGSGTDFTLTISSLQPEDFATYYCQQYSTVPWTFGCGTKVEIK
light: not shown
notes: Knob-into-hole heterodimer; light: ipilimumab VL-kappa; also called H010-F15
For B3, the concentration giving a half-maximal response (EC50) was 0.087 nM in experiment [1] and 0.712 nM in experiment [4]. The IC50 in experiment [5] is 2.22 nM; in experiment [6], 326 nM.

B4: HC010-F11 (trispecific antibody, human IgG4 S228P, kappa)
heavy: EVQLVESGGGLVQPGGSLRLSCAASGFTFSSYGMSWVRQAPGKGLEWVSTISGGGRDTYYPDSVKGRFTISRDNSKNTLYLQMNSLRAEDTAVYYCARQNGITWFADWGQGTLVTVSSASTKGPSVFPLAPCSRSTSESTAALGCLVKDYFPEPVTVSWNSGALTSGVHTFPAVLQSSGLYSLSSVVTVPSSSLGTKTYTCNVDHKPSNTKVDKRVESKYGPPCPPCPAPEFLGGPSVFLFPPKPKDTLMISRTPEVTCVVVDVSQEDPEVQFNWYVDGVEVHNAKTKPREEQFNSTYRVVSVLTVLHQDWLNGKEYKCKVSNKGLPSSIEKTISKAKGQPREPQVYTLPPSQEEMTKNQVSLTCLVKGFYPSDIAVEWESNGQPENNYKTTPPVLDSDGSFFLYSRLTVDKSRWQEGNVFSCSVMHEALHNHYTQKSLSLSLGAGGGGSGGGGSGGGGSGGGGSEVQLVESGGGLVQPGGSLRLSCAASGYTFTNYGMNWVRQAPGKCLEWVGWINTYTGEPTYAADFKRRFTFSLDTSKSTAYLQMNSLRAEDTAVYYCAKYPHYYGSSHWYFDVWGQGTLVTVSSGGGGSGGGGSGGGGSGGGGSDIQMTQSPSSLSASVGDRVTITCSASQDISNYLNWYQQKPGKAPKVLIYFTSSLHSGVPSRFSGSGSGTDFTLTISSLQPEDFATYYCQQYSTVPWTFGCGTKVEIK
light: DIQMTQSPSSLSASVGDRVTITCRASESVDNYGISFMNWYQQKPGKAPKLLIYAASNQGSGVPSRFSGSGSGTDFTLTISSLQPEDFATYYCQQSKEVPWTFGGGTKVEIKRTVAAPSVFIFPPSDEQLKSGTASVVCLLNNFYPREAKVQWKVDNALQSGNSQESVTEQDSKDSTYSLSSTLTLSKADYEKHKVYACEVTHQGLSSPVTKSFNRGECGGGGSGGGGSGGGGSGGGGSEVQLLESGGGLVQPGGSLRLSCAASGSIFSINHMAWYRQAPGKQRELVAGVNSRGTTNYVDSVKGRFTISRDNSKNTLYLQMNSLRAEDTAVYYCRALGGAVAAWGQGTLVTVSS
notes: light: CQ1-3/1-11 VL-kappa - (G4S)4 - 202F1 VHH; also called H010-F11
Consider B4, for which the EC50 came out at 0.125 nM in experiment [1], 0.044 nM in experiment [2] and 0.114 nM in experiment [4]. In addition, the values for the IC50 in experiment [3], in experiment [5] and in experiment [6] were 0.076 nM, 0.83 nM and 5.58 nM, respectively.
